From publication PMC10237653 come the findings set out here.

For assay [1], the target named is GST-fused AjTmod (complete AjTmod sequence) (Apostichopus japonicus). Description: MST; Monolith NT.115; NT-647-NHS labelled protein (about 5 uM) with 16 serial concentrations of unlabelled His-fused actin; 50 mM Tris-HCl pH 8.0, 0.02% Tween 20; 25 °C.
Assay [2] concerns the target GST-fused AjTmod after the addition of His-fused STPKLRR (phosphorylated AjTmod) (Apostichopus japonicus). Kind of assay: MST; as a4, but His-fused STPKLRR (5 uM) added to GSTTmod/His-fused actin and incubated for 10 min.

Usually Kd stands for a measure of binding affinity in units of concentration. In the case of His-fused actin (natural protein), the results for the Kd in assay [1] and in assay [2] were 1.46 nM and 7.16 nM, respectively.
